Reference: publication doi:10.1101/2022.04.19.488791 (bioRxiv, 2022)
Read-outs that look alike come from different tables or passages of the source. One block for each binder: values may come before it.

Key:
Assay in all cases: cryo-EM structure
[1] = molecular target: T1, Slh1 helicase subunit of the ribosome quality control trigger complex RQT (wild type) (yeast, UniProt P53327 1-1967)
[2] = molecular target: Slh1-K316R, ATPase-deficient Slh1 subunit of K316R-RQT (yeast, UniProt P53327 1-1967, K316R)
[3] = molecular target: T1, Slh1 helicase subunit of the ribosome …; remark: listed apart in the source

T1 sequence (P53327 whole entry, one chain of several): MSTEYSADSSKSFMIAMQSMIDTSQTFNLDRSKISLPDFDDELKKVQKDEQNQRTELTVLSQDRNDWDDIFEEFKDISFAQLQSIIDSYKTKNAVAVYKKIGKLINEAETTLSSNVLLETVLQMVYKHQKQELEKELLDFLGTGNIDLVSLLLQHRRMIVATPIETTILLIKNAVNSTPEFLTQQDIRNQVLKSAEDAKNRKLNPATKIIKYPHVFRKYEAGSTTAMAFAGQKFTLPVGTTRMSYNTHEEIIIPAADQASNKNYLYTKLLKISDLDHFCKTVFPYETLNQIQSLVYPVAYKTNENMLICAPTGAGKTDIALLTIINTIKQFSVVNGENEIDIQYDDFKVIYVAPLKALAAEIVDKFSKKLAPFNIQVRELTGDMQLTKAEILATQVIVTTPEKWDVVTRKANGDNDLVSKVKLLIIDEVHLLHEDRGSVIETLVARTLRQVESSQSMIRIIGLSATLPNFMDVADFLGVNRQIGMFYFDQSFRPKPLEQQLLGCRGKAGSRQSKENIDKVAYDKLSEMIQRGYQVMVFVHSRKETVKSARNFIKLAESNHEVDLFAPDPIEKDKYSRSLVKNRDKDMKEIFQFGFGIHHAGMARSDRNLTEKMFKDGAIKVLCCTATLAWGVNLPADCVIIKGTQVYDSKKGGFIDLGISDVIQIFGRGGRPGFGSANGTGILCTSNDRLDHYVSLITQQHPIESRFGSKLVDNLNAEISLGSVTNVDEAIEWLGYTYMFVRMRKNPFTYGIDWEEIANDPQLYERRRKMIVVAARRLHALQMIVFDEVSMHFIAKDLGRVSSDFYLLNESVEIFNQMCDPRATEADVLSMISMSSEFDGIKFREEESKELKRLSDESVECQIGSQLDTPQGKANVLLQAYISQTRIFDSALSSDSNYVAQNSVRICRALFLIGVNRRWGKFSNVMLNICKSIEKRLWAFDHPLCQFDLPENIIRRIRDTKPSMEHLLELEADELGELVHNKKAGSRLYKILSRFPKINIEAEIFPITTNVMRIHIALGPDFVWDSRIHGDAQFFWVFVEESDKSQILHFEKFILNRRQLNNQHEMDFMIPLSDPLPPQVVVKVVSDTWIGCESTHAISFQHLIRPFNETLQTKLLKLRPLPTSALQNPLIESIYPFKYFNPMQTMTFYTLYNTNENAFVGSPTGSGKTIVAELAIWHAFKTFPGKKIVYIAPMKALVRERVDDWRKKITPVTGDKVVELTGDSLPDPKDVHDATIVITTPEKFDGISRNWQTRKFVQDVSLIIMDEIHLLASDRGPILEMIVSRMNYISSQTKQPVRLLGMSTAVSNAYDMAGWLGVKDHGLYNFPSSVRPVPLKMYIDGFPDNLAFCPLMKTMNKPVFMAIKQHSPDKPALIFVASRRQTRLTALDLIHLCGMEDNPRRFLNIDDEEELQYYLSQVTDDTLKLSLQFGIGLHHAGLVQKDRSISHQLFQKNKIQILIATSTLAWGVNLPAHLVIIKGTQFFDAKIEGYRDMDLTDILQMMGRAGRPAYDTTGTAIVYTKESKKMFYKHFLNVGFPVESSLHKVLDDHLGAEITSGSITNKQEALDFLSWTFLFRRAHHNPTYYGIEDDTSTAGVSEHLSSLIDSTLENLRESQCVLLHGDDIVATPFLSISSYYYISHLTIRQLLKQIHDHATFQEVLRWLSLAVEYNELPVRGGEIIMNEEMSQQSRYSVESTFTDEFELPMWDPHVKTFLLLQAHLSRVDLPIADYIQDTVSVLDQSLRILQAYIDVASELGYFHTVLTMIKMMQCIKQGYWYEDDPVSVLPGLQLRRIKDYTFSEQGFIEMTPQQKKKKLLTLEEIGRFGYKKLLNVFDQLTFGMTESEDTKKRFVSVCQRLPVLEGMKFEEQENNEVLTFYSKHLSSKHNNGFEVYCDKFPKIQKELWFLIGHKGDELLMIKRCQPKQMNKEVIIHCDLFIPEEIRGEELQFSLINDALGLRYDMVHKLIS
Chain of Slh1-K316R, ATPase-deficient Slh1 subunit of K316R-RQT (P53327 whole entry K316R): as the sequence (P53327 whole entry, one chain of several) above, with K316R counted along it

binding result [1]: binds
B1: RACK1 (Asc1) of the 40S head (natural protein, UniProt P38011 1-319, looked up)
chain: MASNEVLVLRGTLEGHNGWVTSLATSAGQPNLLLSASRDKTLISWKLTGDDQKFGVPVRSFKGHSHIVQDCTLTADGAYALSASWDKTLRLWDVATGETYQRFVGHKSDVMSVDIDKKASMIISGSRDKTIKVWTIKGQCLATLLGHNDWVSQVRVVPNEKADDDSVTIISAGNDKMVKAWNLNQFQIEADFIGHNSNINTLTASPDGTLIASAGKDGEIMLWNLAAKKAMYTLSAQDEVFSLAFSPNRYWLAAATATGIKVFSLDPQYLVDDLRPEFAGYSKAAEPHAVSLAWSADGQTLFAGYTDNVIRVWQVMTAN

binding result [2]: binds
binding result [3]: binds
B2: Rqt4, zinc-finger containing subunit of RQT (natural protein, yeast, UniProt P36119 1-530, looked up)
chain: MTRKQAIDYAIKQVPQILPLEESDVKALCEQVLSTSSDDPEQIASKFLEFLGHEDLSFEFVMKFNELLNQNDKKEEKKTKNVHLEHTAPTSWKNESKQPTNNYINKKGDEKPKKLKDEKKSSTTRPTVQPSNQSTQSNPIKEKKEHRSKGKLQSLQEIDEAIKMLELRDSGSSKNCNCQGTRHPVFDIAPNCLHCGKVVCVIEGLNKGKCGHCHEQLISDNERTQMVEILNQEKNELNGSSSSLSNASNGANVPKKKTKTYKITSGMGKNLFAEQDKLFDFIERKRERERKRNEVLKLQEEKEESEAKERQASEHDHKAEENPELLAAQERLDRLLYFQDTSAERTKIIDNASDFDMNQEVGLWGSARERALALKKQQRNLRKWEKVEKERNGRREKYVVSMNIGSNGKVTMTEVPKDTENVIAGSDDDISDISDEEDISDLKHIHALKSEINTTKSLENLHLQSKAWDYERDKKQFDRPTYVKKNSDTAQQNRKTEEKAHDMQAYDLKSRVQVDQNADASVEQNILAVL

binding result [2]: binds
binding result [3]: binds
B3: Cue3, ubiquitin-binding CUE domain containing subunit of RQT (natural protein, yeast, UniProt P53137 1-624, looked up)
chain: MLSRYNRVIEINGGNADISLPIVKFPPFKLRAQLIEKDPVVWLHLIETYVTYFEYLMQGANVELLDESTLDHLRLFLRTYLHEIADEEGKLLSLGINHDVSEQLYLLKGWIFSLIKKCGLLHLQIFGDSLWNLIKVYVRRNPDSIRGLIDGSLKPRINTQRVQLDKSYQVQQHLKQLIESGKFKRIDLRCVEDLLSAKSMQPNKFAENFFTANWIEILEALWAKGQGRGHKEARELIIISLFSVSADRLLKITKELGISNFETLALYPLLGTMLINEGVHKRLPDLKSKLLFLNLGGLSMDEGDHMSYPTSSGTEVNEEQLSALMELFPQFSKYQLSQTLLAYDNNIELVTNKIFEDPTIIEAFSREPAEEEVEPVSDGDNASFTEELSILDRGDSSKNKELDKKIISEGVPDELRNKTLTRALKLLYEADEDERDDTYDEADVNRSDPSKRIGLQEDEESYDTKDDSNEVRQDHNYHIVEAYLWNLLKEDPKLFERSKRGTKVRKTMKEMTSWSDEKIEGWCRMLERSPTRARLLEKKFMFKGNSKTGKTSYVHNRDSQNDGNVVKEQAKQKKSENIKKHEPQSTEQKKRQHAKNEKRKGARANHNRKKGHDKKLARAGNNAI

binding result [1]: binds
B4: ribosomal protein uS5 of the 40S subunit (natural protein, UniProt P25443 1-254, looked up)
chain: MSAPEAQQQKRGGFGGRNRGRPNRRGPRNTEEKGWVPVTKLGRLVKAGKITTIEEIFLHSLPVKEFQIIDTLLPGLQDEVMNIKPVQKQTRAGQRTRFKAVVVVGDSNGHVGLGIKTAKEVAGAIRAGIIIAKLSVIPIRRGYWGTNLGQPHSLATKTTGKCGSVTVRLIPAPRGSGIVASPAVKKLLQLAGVEDVYTQSNGKTRTLENTLKAAFVAIGNTYGFLTPNLWAEQPLPVSPLDIYSDEASAQKKRF

binding result [1]: binds
B5: ribosomal protein uS3 of the 40S subunit (natural protein, UniProt P05750 1-240, looked up)
chain: MVALISKKRKLVADGVFYAELNEFFTRELAEEGYSGVEVRVTPTKTEVIIRATRTQDVLGENGRRINELTLLVQKRFKYAPGTIVLYAERVQDRGLSAVAQAESMKFKLLNGLAIRRAAYGVVRYVMESGAKGCEVVVSGKLRAARAKAMKFADGFLIHSGQPVNDFIDTATRHVLMRQGVLGIKVKIMRDPAKSRTGPKALPDAVTIIEPKEEEPILAPSVKDYRPAEETEAQAEPVEA
